Measurements as given in patent publication US20260337278 (published 2026).

B1: SI-95X30 (antibody)
chain 1: not shown
chain 2: DIQMTQSPSSLSASVGDRVTITCRSSQNIVHSNGNTYLDWYQQTPGKAPKLLIYKVSNRFSGVPSRFSGSGSGTDFTFTISSLQPEDIATYYCFQYSHVPWTFGQGTKLQITRTVAAPSVFIFPPSDEQLKSGTASVVCLLNNFYPREAKVQWKVDNALQSGNSQESVTEQDSKDSTYSLSSTLTLSKADYEKHKVYACEVTHQGLSSPVTKSFNRGECGGGGSGSGSGGGGGSGGGGSGGGGSDVQLQESGPSLVKPSQSLSLTCTVTGYSITSDFAWNWIRQFPGNKLEWMGYISYSGNTRYNPSLKSRISITRDTSKNQFFLQLNSVTIEDTATYYCVTAGRGFPYWGQGTLVTVSAGGGGSGGGGSGGGGSDILMTQSPSSMSVSLGDTVSITCHSSQDINSNIGWLQQRPGKSFKGLIYHGTNLDDEVPSRFSGSGSGADYSLTISSLESEDFADYYCVQYAQFPWTFGGGTKLEIK
B2: SI-95X29 (antibody)
chain 1: not shown
chain 2: DIQMTQSPSSLSASVGDRVTITCRSSQNIVHSNGNTYLDWYQQTPGKAPKLLIYKVSNRFSGVPSRFSGSGSGTDFTFTISSLQPEDIATYYCFQYSHVPWTFGQGTKLQITRTVAAPSVFIFPPSDEQLKSGTASVVCLLNNFYPREAKVQWKVDNALQSGNSQESVTEQDSKDSTYSLSSTLTLSKADYEKHKVYACEVTHQGLSSPVTKSFNRGECSGSGSGGGGGSGGGGSGGGGSDVQLQESGPSLVKPSQSLSLTCTVTGYSITSDFAWNWIRQFPGNKLEWMGYISYSGNTRYNPSLKSRISITRDTSKNQFFLQLNSVTIEDTATYYCVTAGRGFPYWGQGTLVTVSAGGGGSGGGGSGGGGSDILMTQSPSSMSVSLGDTVSITCHSSQDINSNIGWLQQRPGKSFKGLIYHGTNLDDEVPSRFSGSGSGADYSLTISSLESEDFADYYCVQYAQFPWTFGGGTKLEIK
B3: SI-95X26 (antibody)
chain 1: not shown
chain 2: DILMTQSPSSMSVSLGDTVSITCHSSQDINSNIGWLQQRPGKSFKGLIYHGTNLDDEVPSRFSGSGSGADYSLTISSLESEDFADYYCVQYAQFPWTFGGGTKLEIKGGGGSGGGGSGGGGSDVQLQESGPSLVKPSQSLSLTCTVTGYSITSDFAWNWIRQFPGNKLEWMGYISYSGNTRYNPSLKSRISITRDTSKNQFFLQLNSVTIEDTATYYCVTAGRGFPYWGQGTLVTVSASGSGSGGGGGSGGGGSGGGGSDIQMTQSPSSLSASVGDRVTITCRSSQNIVHSNGNTYLDWYQQTPGKAPKLLIYKVSNRFSGVPSRFSGSGSGTDFTFTISSLQPEDIATYYCFQYSHVPWTFGQGTKLQITRTVAAPSVFIFPPSDEQLKSGTASVVCLLNNFYPREAKVQWKVDNALQSGNSQESVTEQDSKDSTYSLSSTLTLSKADYEKHKVYACEVTHQGLSSPVTKSFNRGEC
B4: SI-95X25 (antibody)
chain 1: not shown
chain 2: DVQLQESGPSLVKPSQSLSLTCTVTGYSITSDFAWNWIRQFPGNKLEWMGYISYSGNTRYNPSLKSRISITRDTSKNQFFLQLNSVTIEDTATYYCVTAGRGFPYWGQGTLVTVSAGGGGSGGGGSGGGGSDILMTQSPSSMSVSLGDTVSITCHSSQDINSNIGWLQQRPGKSFKGLIYHGTNLDDEVPSRFSGSGSGADYSLTISSLESEDFADYYCVQYAQFPWTFGGGTKLEIKGGGGSGGGGSGSGSGGGGGSGGGGSGGGGSDIQMTQSPSSLSASVGDRVTITCRSSQNIVHSNGNTYLDWYQQTPGKAPKLLIYKVSNRFSGVPSRFSGSGSGTDFTFTISSLQPEDIATYYCFQYSHVPWTFGQGTKLQITRTVAAPSVFIFPPSDEQLKSGTASVVCLLNNFYPREAKVQWKVDNALQSGNSQESVTEQDSKDSTYSLSSTLTLSKADYEKHKVYACEVTHQGLSSPVTKSFNRGEC
B5: SI-95X27 (antibody)
chain 1: not shown
chain 2: DILMTQSPSSMSVSLGDTVSITCHSSQDINSNIGWLQQRPGKSFKGLIYHGTNLDDEVPSRFSGSGSGADYSLTISSLESEDFADYYCVQYAQFPWTFGGGTKLEIKGGGGSGGGGSGGGGSDVQLQESGPSLVKPSQSLSLTCTVTGYSITSDFAWNWIRQFPGNKLEWMGYISYSGNTRYNPSLKSRISITRDTSKNQFFLQLNSVTIEDTATYYCVTAGRGFPYWGQGTLVTVSAGGGGSGSGSGGGGGSGGGGSGGGGSDIQMTQSPSSLSASVGDRVTITCRSSQNIVHSNGNTYLDWYQQTPGKAPKLLIYKVSNRFSGVPSRFSGSGSGTDFTFTISSLQPEDIATYYCFQYSHVPWTFGQGTKLQITRTVAAPSVFIFPPSDEQLKSGTASVVCLLNNFYPREAKVQWKVDNALQSGNSQESVTEQDSKDSTYSLSSTLTLSKADYEKHKVYACEVTHQGLSSPVTKSFNRGEC
B6: SI-95X23 (antibody)
chain 1: not shown
chain 2: DVQLQESGPSLVKPSQSLSLTCTVTGYSITSDFAWNWIRQFPGNKLEWMGYISYSGNTRYNPSLKSRISITRDTSKNQFFLQLNSVTIEDTATYYCVTAGRGFPYWGQGTLVTVSAGGGGSGGGGSGGGGSDILMTQSPSSMSVSLGDTVSITCHSSQDINSNIGWLQQRPGKSFKGLIYHGTNLDDEVPSRFSGSGSGADYSLTISSLESEDFADYYCVQYAQFPWTFGGGTKLEIKSGSGSGGGGGSGGGGSGGGGSDIQMTQSPSSLSASVGDRVTITCRSSQNIVHSNGNTYLDWYQQTPGKAPKLLIYKVSNRFSGVPSRFSGSGSGTDFTFTISSLQPEDIATYYCFQYSHVPWTFGQGTKLQITRTVAAPSVFIFPPSDEQLKSGTASVVCLLNNFYPREAKVQWKVDNALQSGNSQESVTEQDSKDSTYSLSSTLTLSKADYEKHKVYACEVTHQGLSSPVTKSFNRGEC
B7: SI-95X3 (antibody)
chain 1: not shown
chain 2: DILMTQSPSSMSVSLGDTVSITCHSSQDINSNIGWLQQRPGKSFKGLIYHGTNLDDEVPSRFSGSGSGADYSLTISSLESEDFADYYCVQYAQFPWTFGGGTKLEIKRTVAAPSVFIFPPSDEQLKSGTASVVCLLNNFYPREAKVQWKVDNALQSGNSQESVTEQDSKDSTYSLSSTLTLSKADYEKHKVYACEVTHQGLSSPVTKSFNRGEC
B8: SI-95X35 (antibody)
chain 1: not shown
chain 2: DILMTQSPSSMSVSLGDTVSITCHSSQDINSNIGWLQQRPGKSFKGLIYHGTNLDDEVPSRFSGSGSGADYSLTISSLESEDFADYYCVQYAQFPWTFGGGTKLEIKRTVAAPSVFIFPPSDEQLKSGTASVVCLLNNFYPREAKVQWKVDNALQSGNSQESVTEQDSKDSTYSLSSTLTLSKADYEKHKVYACEVTHQGLSSPVTKSFNRGEC
B9: SI-95X28 (antibody)
chain 1: not shown
chain 2: DILMTQSPSSMSVSLGDTVSITCHSSQDINSNIGWLQQRPGKSFKGLIYHGTNLDDEVPSRFSGSGSGADYSLTISSLESEDFADYYCVQYAQFPWTFGGGTKLEIKGGGGSGGGGSGGGGSDVQLQESGPSLVKPSQSLSLTCTVTGYSITSDFAWNWIRQFPGNKLEWMGYISYSGNTRYNPSLKSRISITRDTSKNQFFLQLNSVTIEDTATYYCVTAGRGFPYWGQGTLVTVSAGGGGSGGGGSGSGSGGGGGSGGGGSGGGGSDIQMTQSPSSLSASVGDRVTITCRSSQNIVHSNGNTYLDWYQQTPGKAPKLLIYKVSNRFSGVPSRFSGSGSGTDFTFTISSLQPEDIATYYCFQYSHVPWTFGQGTKLQITRTVAAPSVFIFPPSDEQLKSGTASVVCLLNNFYPREAKVQWKVDNALQSGNSQESVTEQDSKDSTYSLSSTLTLSKADYEKHKVYACEVTHQGLSSPVTKSFNRGEC
B10: SI-95X31 (antibody)
chain 1: not shown
chain 2: DIQMTQSPSSLSASVGDRVTITCRSSQNIVHSNGNTYLDWYQQTPGKAPKLLIYKVSNRFSGVPSRFSGSGSGTDFTFTISSLQPEDIATYYCFQYSHVPWTFGQGTKLQITRTVAAPSVFIFPPSDEQLKSGTASVVCLLNNFYPREAKVQWKVDNALQSGNSQESVTEQDSKDSTYSLSSTLTLSKADYEKHKVYACEVTHQGLSSPVTKSFNRGECGGGGSGGGGSGSGSGGGGGSGGGGSGGGGSDVQLQESGPSLVKPSQSLSLTCTVTGYSITSDFAWNWIRQFPGNKLEWMGYISYSGNTRYNPSLKSRISITRDTSKNQFFLQLNSVTIEDTATYYCVTAGRGFPYWGQGTLVTVSAGGGGSGGGGSGGGGSDILMTQSPSSMSVSLGDTVSITCHSSQDINSNIGWLQQRPGKSFKGLIYHGTNLDDEVPSRFSGSGSGADYSLTISSLESEDFADYYCVQYAQFPWTFGGGTKLEIK
B11: SI-95X24 (antibody)
chain 1: not shown
chain 2: DVQLQESGPSLVKPSQSLSLTCTVTGYSITSDFAWNWIRQFPGNKLEWMGYISYSGNTRYNPSLKSRISITRDTSKNQFFLQLNSVTIEDTATYYCVTAGRGFPYWGQGTLVTVSAGGGGSGGGGSGGGGSDILMTQSPSSMSVSLGDTVSITCHSSQDINSNIGWLQQRPGKSFKGLIYHGTNLDDEVPSRFSGSGSGADYSLTISSLESEDFADYYCVQYAQFPWTFGGGTKLEIKGGGGSGSGSGGGGGSGGGGSGGGGSDIQMTQSPSSLSASVGDRVTITCRSSQNIVHSNGNTYLDWYQQTPGKAPKLLIYKVSNRFSGVPSRFSGSGSGTDFTFTISSLQPEDIATYYCFQYSHVPWTFGQGTKLQITRTVAAPSVFIFPPSDEQLKSGTASVVCLLNNFYPREAKVQWKVDNALQSGNSQESVTEQDSKDSTYSLSSTLTLSKADYEKHKVYACEVTHQGLSSPVTKSFNRGEC
B12: SI-95X18 (antibody)
chain 1: not shown
chain 2: DIQMTQSPSSLSASVGDRVTITCRSSQNIVHSNGNTYLDWYQQTPGKAPKLLIYKVSNRFSGVPSRFSGSGSGTDFTFTISSLQPEDIATYYCFQYSHVPWTFGQGTKLQITRTVAAPSVFIFPPSDEQLKSGTASVVCLLNNFYPREAKVQWKVDNALQSGNSQESVTEQDSKDSTYSLSSTLTLSKADYEKHKVYACEVTHQGLSSPVTKSFNRGEC
B13: SI-95X20 (antibody)
chain 1: not shown
chain 2: DIQMTQSPSSLSASVGDRVTITCRSSQNIVHSNGNTYLDWYQQTPGKAPKLLIYKVSNRFSGVPSRFSGSGSGTDFTFTISSLQPEDIATYYCFQYSHVPWTFGQGTKLQITRTVAAPSVFIFPPSDEQLKSGTASVVCLLNNFYPREAKVQWKVDNALQSGNSQESVTEQDSKDSTYSLSSTLTLSKADYEKHKVYACEVTHQGLSSPVTKSFNRGEC
B14: SI-95X21 (antibody)
chain 1: not shown
chain 2: DIQMTQSPSSLSASVGDRVTITCRSSQNIVHSNGNTYLDWYQQTPGKAPKLLIYKVSNRFSGVPSRFSGSGSGTDFTFTISSLQPEDIATYYCFQYSHVPWTFGQGTKLQITRTVAAPSVFIFPPSDEQLKSGTASVVCLLNNFYPREAKVQWKVDNALQSGNSQESVTEQDSKDSTYSLSSTLTLSKADYEKHKVYACEVTHQGLSSPVTKSFNRGEC

Legend:
[1] = molecular target: EGFRvIII (human, UniProt P00533); assay: BLI
[2] = molecular target: EGFR (wild-type, His-tagged or biotinylated) (human, UniProt P00533); assay: BLI

Row | Binder | Kd [1] [nM] | Kd [2] [nM]
1 | B1 | 1.24 | 8.84
2 | B2 | 1.12 | 10.1
3 | B3 | 0.281 | 9.35
4 | B4 | 1.21 | 13.4
5 | B5 | 0.507 | 10.7
6 | B6 | 1.45 | 6.17
7 | B7 | 0.375 | 0.68
8 | B8 | 0.628 | 0.686
9 | B9 | 0.579 | 7.56
10 | B10 | 1.08 | 10.5
11 | B11 | 1.45 | 7.94
12 | B12 | 0.593 | 4.17
13 | B13 | 0.839 | 4.73
14 | B14 | 0.654 | 5.56
